Reference: patent publication US20130040825A1, “DNA DAMAGE DETECTION ASSAY AND METHOD” (priority 2011, published 2013)

What was measured:
CAN1 gene = experiment: q-PADDA quantification of induced DNA damage after in vitro exposure of cloned CAN1 plasmid DNA; assay type: biochemical, Saccharomyces cerevisiae
Description: We quantified induced DNA damage after in vitro and/or in vivo exposure to a dose escalation of H2O2 (1 μM to 500 mM) and methyl methanosulfonate (MMS) (1 mM to 1 M). For in vitro assays, a 1,750 bp fragment of the CAN1 gene was amplified by PCR and cloned into the pJET1.2 vector (Fermentas, Glenn Burie, Md.) using standard protocols. Plasmid DNA was sequence verified, extracted using CsCl and dialyzed overnight against 500 ml H2O. Five μg of dialyzed DNA were treated with H2O2 in the presence of 0.3 M sucrose and 100 μM Fe^2+ as described (84), or with MMS in water (85). Treated DNA was recovered by ethanol precipitation. For in vivo induced DNA damage assays, BER− cells in logarithmic phase were treated with varying doses and times of MMS as described (85). For a control, cells were treated with water in place of MMS. Genomic DNA was extracted as described above, except MMS concentration was kept constant during spheroplasting. […] Control samples were processed as treated samples except water was added in place of the specific genotoxic. Experiments were repeated at least in triplicate. For high-throughput damage quantification, the highly purified streptavidin bound extended products were re-suspended in 50 μl TE and amplified by Real-Time PCR using one of 2 Real-Time PCR detection Systems: IQ5 Real-Time PCR detection System or Qx100 digital droplet PCR system.
For the IQ5 Real-Time PCR detection System using Sybr Green, reactions were carried out in an in a 25 μl final volume with PCR buffer (40 mM Tricine-KOH (pH 8.0), 16 mM KCl, 3.5 mM MgCl2, 3.75 μg/ml bovine serum albumin), 1:75,000 dilution SYBR Green I (Invitrogen), 0.8 mM total dNTPs (Fermentas), 0.7 units JUMPSTART Taq polymerase (Sigma), 0.32 μM each oligo, and 1/32 of total extended product pool. Amplification was monitored and analyzed by measuring the intercalation of the fluorescent dye to double-stranded DNA according to the manufacturer's instructions. To quantify damage on each strand of the yeast CAN1 gene, two fragments of different lengths located in the same genomic region were amplified. The long fragment (513 to 628 bases) was used to assess damage quantification. The short fragment (67 to 68 bases), representing undamaged DNA, was used as an internal normalization control. The PCR conditions for the different fragments were optimized to achieve similar amplification efficiencies required to compare different amplicons. All products were amplified under the following conditions: 95° C., 3 min; 40 cycles (95° C., 15 s; 63° C., 40 s). Each sample was assayed in at least three independent experiments, each with at least four wells per sample, from three separate yeast cultures and DNA extractions. […]

BER− cells = experiment: q-PADDA quantification of in vivo induced DNA damage in BER− cells in logarithmic phase; assay type: cell-based, Saccharomyces cerevisiae; conditions: BER− yeast cells (FIG. 4A, 4B)
Description: We quantified induced DNA damage after in vitro and/or in vivo exposure to a dose escalation of H2O2 (1 μM to 500 mM) and methyl methanosulfonate (MMS) (1 mM to 1 M). For in vitro assays, a 1,750 bp fragment of the CAN1 gene was amplified by PCR and cloned into the pJET1.2 vector (Fermentas, Glenn Burie, Md.) using standard protocols. Plasmid DNA was sequence verified, extracted using CsCl and dialyzed overnight against 500 ml H2O. Five μg of dialyzed DNA were treated with H2O2 in the presence of 0.3 M sucrose and 100 μM Fe^2+ as described (84), or with MMS in water (85). Treated DNA was recovered by ethanol precipitation. […] For high-throughput damage quantification, the highly purified streptavidin bound extended products were re-suspended in 50 μl TE and amplified by Real-Time PCR using one of 2 Real-Time PCR detection Systems: IQ5 Real-Time PCR detection System or Qx100 digital droplet PCR system.
For the IQ5 Real-Time PCR detection System using Sybr Green, reactions were carried out in an in a 25 μl final volume with PCR buffer (40 mM Tricine-KOH (pH 8.0), 16 mM KCl, 3.5 mM MgCl2, 3.75 μg/ml bovine serum albumin), 1:75,000 dilution SYBR Green I (Invitrogen), 0.8 mM total dNTPs (Fermentas), 0.7 units JUMPSTART Taq polymerase (Sigma), 0.32 μM each oligo, and 1/32 of total extended product pool. […] The long fragment (513 to 628 bases) was used to assess damage quantification. […]

naked DNA = experiment: PADDA detection of cytosine deamination after exposure of naked DNA to serial dilutions of sodium bisulfite; assay type: biochemical; conditions: serial dilutions (FIG. 6)
Vent exo− = biological target: T1, Vent exo− (Thermococcus litoralis, UniProt P30317, D141A/DEL1082-1471/DEL495-1032/E143A); experiment: f-PADDA primer extension on synthetic oligonucleotides containing a single engineered lesion; assay type: biochemical; conditions: for lesion detected in primer extensions (sensitivity of PADDA): engineered lesion in 64 base template, at least 20 independent events per lesion; for Lesion Bypass with Misincorporation (LBM): misincorporation without replicative arrest; for Stops with Misincorporation (SMs): replicative arrest with misincorporation opposite the damaged base; for Stops: replicative arrest without misincorporation; for lesion acting as Vent exo− blocking lesion: share of all primer extensions
T1 construct: Vent exo−, a truncated form of a native DNA polymerase (Vent, NEB); purchased NEB
T1 sequence (P30317 other isoform, or with tags, fused parts or gaps D141A/E143A/DEL495-1032/DEL1082-1471): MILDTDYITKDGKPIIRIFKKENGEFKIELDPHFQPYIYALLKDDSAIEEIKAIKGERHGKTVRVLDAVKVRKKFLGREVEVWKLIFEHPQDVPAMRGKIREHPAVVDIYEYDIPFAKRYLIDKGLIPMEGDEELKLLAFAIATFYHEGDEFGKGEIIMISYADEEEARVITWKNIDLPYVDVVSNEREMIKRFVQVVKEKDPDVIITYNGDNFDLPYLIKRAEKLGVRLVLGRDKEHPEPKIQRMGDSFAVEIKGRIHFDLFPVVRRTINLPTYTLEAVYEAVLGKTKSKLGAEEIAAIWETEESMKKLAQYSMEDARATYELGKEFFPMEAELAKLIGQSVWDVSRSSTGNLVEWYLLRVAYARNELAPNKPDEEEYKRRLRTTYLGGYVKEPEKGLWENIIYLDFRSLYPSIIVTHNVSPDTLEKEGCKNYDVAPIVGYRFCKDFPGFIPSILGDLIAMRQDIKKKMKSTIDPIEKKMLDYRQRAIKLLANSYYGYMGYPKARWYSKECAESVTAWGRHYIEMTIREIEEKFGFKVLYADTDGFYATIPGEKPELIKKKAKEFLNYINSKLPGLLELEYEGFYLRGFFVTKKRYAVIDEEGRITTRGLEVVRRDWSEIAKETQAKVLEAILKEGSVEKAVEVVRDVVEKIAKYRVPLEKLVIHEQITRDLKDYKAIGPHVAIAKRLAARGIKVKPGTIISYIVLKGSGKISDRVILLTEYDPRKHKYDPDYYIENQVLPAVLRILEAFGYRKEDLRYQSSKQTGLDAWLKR
Description: A single non-cycled primer-extension reaction in the region of interest was performed to screen for DNA damage. It will be understood that the presently disclosed and claimed inventive concepts are not limited to these oligonucleotides. For damage detection in synthetic DNA, we prepared a 22.8 μl primer extension reaction containing 1× Thermopol buffer (NEB, Ipswich, Mass.), 0.2 mM each dNTP (Fermentas, Glen Burie, Md.), 20 pmol of a 5-biotin-tagged primer, and 20 pmol of a 64 base template containing either a synthetic abasic or 8-OxoG lesion, along with a control (undamaged oligo). To generate a pool of biotin-tagged extended products (FIG. 1A), the mix was incubated at 94° C. for 3 min, held at 85° C. to add 0.08 U of Vent exo− (NEB), and then incubated at 58° C. for 2 min (annealing), and 75° C. for 2 min (extension). For damage detection in genomic DNA, we used 500 ng of S. cerevisiae genomic DNA, 0.8 U of Vent exo−, and 2 pmol of a 5-biotin-tagged gene specific primer. A sample containing all reagents except Vent exo− was used as a negative control for all experiments. The non-cycled primer-extension contrasts with the multiple-cycle primer-extension reaction of previous assays, and generates a pool of highly specific biotin-tagged extended products (EPs), each of them derived from a single DNA molecule and strand (FIG. 1A). The use of a 5-biotin-tagged sequence specific primer allows for subsequent steps aimed at reducing the background of the technique. Vent exo−, a truncated form of a native DNA polymerase (Vent, NEB), was chosen for this assay instead of the currently used Sequenase (13) or Taq DNA polymerase (14), because of its reported high sensitivity to detect DNA damage (21) and primer-extension efficiency (22-24). To optimize primer-extension performance, Vent exo− units were adjusted to the complexity of the DNA being screened (22).
For the purpose of mapping strand-specific nucleotide damage (f-PADDA), the 3′-end of the highly purified extended products was attached to the 5′-end of a chemically modified adapter-primer using Thermophage single-stranded DNA ligase (Prokaria, Reykjavik, Iceland) [Currently Circligase I from Epicentre, Madison, Wis.]. Thermophage was chosen for this reaction because its efficiency for single-strand ligation is higher than that of T4 RNA ligase (25) used in some PCR-based assays. […] Purified extended-products were first washed with 20 μl of 1× Thermophage ssDNA ligase buffer and then resuspended in 3.7 μl of 1× Thermophage ssDNA ligase buffer. The ligation was performed as recommended by Prokaria except 1.5 μM adapter and 10 U ssDNA ligase in a final 10 μl volume were used under the following conditions: 55° C. for 1 h, 65° C. for 15 min, and 70° C. for 15 min. Then, samples were spun briefly and the supernatant removed as before in the presence of a magnet. The adapter-ligated extended-products were washed with 1 ml of 2× B&W buffer, and then incubated with 1 ml of 0.5 M NaOH for 5 min to completely remove free adapters and non-specifically bound DNA. Finally, the supernatant was discarded and the bound products were washed with 200 μl of 2× B&W buffer. The adapter-linked extended-products pool was then washed with 20 μl of 1× Phusion HF PCR buffer and amplified for 35-cycles using Phusion Hot-Start DNA Polymerase (Finnzymes), an oligonucleotide complementary to the adapter-primer and a nested gene-specific primer according to the manufacturer's instructions. Phusion Hot-Start DNA Polymerase has the highest available accuracy (error rate=4.4×10^−7) and generates blunt-end products. After PCR amplification, the supernatant was collected under a magnetic field for use in cloning (CLONE JET PCR cloning kit, Fermentas) and transformation following standard procedures. This cloning strategy yields 99% of clones positive for a cloned insert. […]

Molecule | lesion detected in primer extensions (sensitivity of PADDA) (Vent exo−) [%] | Stops with Misincorporation (SMs) (Vent exo−) [%] | Stops (Vent exo−) [%] | lesion acting as Vent exo− blocking lesion (Vent exo−) [%] | also measured
OO [H2O2, Hydrogen peroxide] |  |  |  |  | total CAN1 DNA damage compared to the control (CAN1 gene; each dose escalation from 1 μM to 500 mM): significant increase in total CAN1 DNA damage; lowest dose giving a significant increase in damage, NTS (CAN1 gene; non-transcribed strand of CAN1, p<0.005): 1 µM; lowest dose giving a significant increase in damage, TS (CAN1 gene; transcribed strand of CAN1, p<0.005): 10 µM
COS(C)(=O)=O [MMS, methyl methanosulfonate] |  |  |  |  | in vitro DNA damage induced by dose escalation (CAN1 gene; dose escalation (FIG. 5)): increase in in vitro DNA damage; in vivo DNA damage induced by dose escalation or by increase in exposure time (BER− cells): increase in in vivo DNA damage
O=S([O-])O.[Na+] [sodium bisulfite] |  |  |  |  | DNA change induced in naked DNA (naked DNA): deamination of unmethylated cytosines to uracil
thymine glycol lesion: synthetic template oligonucleotide containing a single 5R,6S-dihydroxy-5,6-dihydrothymine (thymine glycol) (nucleic acid, thymine glycol lesion, further chemistry not given here) DNA: CCACTCACCGGCACATAACAGACTTGGCTGTCCCAGACTGCAGGAAGCCCAGGTGGAAGCCAT | 67 |  |  |  | 
Abasic sites: 64 base synthetic template oligonucleotide with a single abasic site (dSpacer tetrahydrofuran analog) (nucleic acid, abasic tetrahydrofuran site, further chemistry not given here) DNA: CCACTCTCCATGCACATAACAGACTTGGCTCACCTGCACTCAGGAAGCCCAGGTGGAAGCCAT | 100 | 50 | 45 | 95 | Lesion Bypass with Misincorporation (LBM) (Vent exo−): 5%
8-oxo-dA lesion: synthetic template oligonucleotide containing a single 7,8-dihydro-8-oxo-2′-deoxyadenosine (8-oxo-dA) (nucleic acid, 8-oxo-dA lesion, chemistry not fully specified) DNA: CCACTCTCCATGCACATAACAGACTTGGCTGTGCNCGGTGCTCAGGAAGCCCAGGTGGAAGCCAT | 100 | 10 | 90 | 100 | 
8-OxoG lesion: synthetic template oligonucleotide containing a single 7,8-dihydro-8-oxo-2′-deoxyguanosine (8-oxo-dG) (nucleic acid, 8-oxo-dG lesion, chemistry not fully specified) DNA: CCACTCACCNTGCACATAACAGACTTGGCTGTCCCAGACTGCAGGAAGCCCAGGTGGAAGCCAT | 85 | 15 | 8 | 23 | Bypass by Vent exo− without misincorporation (Vent exo−): 15%; Lesion Bypass with Misincorporation (LBM) (Vent exo−): 62%
